Experimental data taken from paper PMC4981888.

Target: GST-SVV (UniProt O15392)
Experiment: native gel or EMSA; 0.5 μg recombinant protein in native sample buffer (no SDS, no β-mercaptoethanol) on a 15% or 6% native polyacrylamide gel; Western blot with anti-SVV or anti-cortactin; monomer and dimer bands

stoichiometry N: 2
Substance: GST-SVV (from UniProt O15392 1-142)
